Measurements taken from publication PMC7392197 (Journal of the American Chemical Society, 2020).

Target: the molecule itself
Test: SEC

B1: His6-MBP-UvrC fusion protein (holo form, with [4Fe4S] cluster) (enzyme, E. coli, UniProt P0A8G0 1-610, looked up)
chain: MSDQFDAKAFLKTVTSQPGVYRMYDAGGTVIYVGKAKDLKKRLSSYFRSNLASRKTEALVAQIQQIDVTVTHTETEALLLEHNYIKLYQPRYNVLLRDDKSYPFIFLSGDTHPRLAMHRGAKHAKGEYFGPFPNGYAVRETLALLQKIFPIRQCENSVYRNRSRPCLQYQIGRCLGPCVEGLVSEEEYAQQVEYVRLFLSGKDDQVLTQLISRMETASQNLEFEEAARIRDQIQAVRRVTEKQFVSNTGDDLDVIGVAFDAGMACVHVLFIRQGKVLGSRSYFPKVPGGTELSEVVETFVGQFYLQGSQMRTLPGEILLDFNLSDKTLLADSLSELAGRKINVQTKPRGDRARYLKLARTNAATALTSKLSQQSTVHQRLTALASVLKLPEVKRMECFDISHTMGEQTVASCVVFDANGPLRAEYRRYNITGITPGDDYAAMNQVLRRRYGKAIDDSKIPDVILIDGGKGQLAQAKNVFAELDVSWDKNHPLLLGVAKGADRKAGLETLFFEPEGEGFSLPPDSPALHVIQHIRDESHDHAIGGHRKKRAKVKNTSSLETIEGVGPKRRQMLLKYMGGLQGLRNASVEEIAKVPGISQGLAEKIFWSLKH
For B1, the “stoichiometry N” value was 2.
